Reference: publication PMC9825155, “Cdk1-mediated threonine phosphorylation of Sam68 modulates its RNA binding, alternative splicing activity and cellular functions”

How the values were obtained:
[1] = biological target: T1, Sam68 N-terminal region (UniProt Q07666 1-96); test: NMR titration; second estimate (probably Arg side chains); NMR: HSQC at 4 C (NMR buffer not given in material; purification in 50 mM sodium phosphate, 150 mM NaCl, pH 7.6 N-term / pH 7.0 C-term). Pull-down: 20 mM HEPES; details: protein: recombinant; tags: His-tag removed by TEV
[2] = biological target: T2, Sam68 C-terminal region (UniProt Q07666 267-368); test: as above; details: protein: recombinant; tags: GST removed by PreScission
[3] = biological target: T1, Sam68 N-terminal region; test: NMR titration; one of two estimates (backbone or Arg side chains; panel assignment not clear, error suggests eight backbone resonances); text range 1-10 uM; NMR: HSQC at 4 C (NMR buffer not given in material; purification in 50 mM sodium phosphate, 150 mM NaCl, pH 7.6 N-term / pH 7.0 C-term). Pull-down: 20 mM HEPES; details: protein: recombinant; tags: His-tag removed by TEV
[4] = biological target: T2, Sam68 C-terminal region; test: NMR titration; one of two estimates (backbone or Arg side chains; panel assignment not clear, error suggests eight backbone resonances); text range 30-70 uM; NMR: HSQC at 4 C (NMR buffer not given in material; purification in 50 mM sodium phosphate, 150 mM NaCl, pH 7.6 N-term / pH 7.0 C-term). Pull-down: 20 mM HEPES; details: protein: recombinant; tags: GST removed by PreScission

T2 sequence (Q07666 267-368): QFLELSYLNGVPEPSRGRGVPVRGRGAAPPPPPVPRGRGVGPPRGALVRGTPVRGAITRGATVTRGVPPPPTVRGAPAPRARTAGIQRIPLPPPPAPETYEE
T1 sequence (Q07666 1-96): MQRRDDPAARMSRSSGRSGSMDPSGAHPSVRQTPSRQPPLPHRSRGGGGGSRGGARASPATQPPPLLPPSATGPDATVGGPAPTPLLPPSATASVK

In the case of CUGGGUGACACACUAGCUAUAGCAUUAAAAGACCGAGCAAGU (ssRNA) [G8.5 RNA], the Kd [1] is reported as 12 µM, the Kd [2] is reported as 68 µM and the Kd [3] is reported as 3.5 ± 1.2 µM. For the same binder, the Kd [4] was 32 ± 5 µM.
